Data as given in paper PMC6909241.

Target: NCp7 (nucleocapsid protein) (HIV-1, UniProt P12493 378-432)
Test: EMSA; 7.5-300 nM NCp7, 15 nM RNA folded in 50 mM KCl; free G4 decreases from 75 nM, near complete disappearance and faint complex at 300 nM; EMSA: RNA annealed in 10 mM Li cacodylate pH 7.4, 50 mM KCl; 15 nM RNA in 8% glycerol, 30 mM Tris-HCl, 15 mM MgCl2, 50 uM ZnCl2, 37 C; 12% native gel at 4 C

GGGAGGCGUGGCCUGGGCGGGACUGGGGAGUGG (structured_RNA) [RNA U3-III+IV G4]: binds.
